What was measured:
[1] = molecular target: T1, EBV gH/gL (gH 19-679 linked to gL 24-137 by (G4S)3) (Epstein-Barr virus (human …)); test: SPR; conditions: both partners purified
T1 construct: also called gH/gL WT; source: 293F, transfected, purified (Ni-NTA, SEC); not shown: HIS Tag, C-terminal, kept

[2] = molecular target: T2, EBV gH/gL on the surface of CHO-K1 effector cells (Epstein-Barr virus, UniProt P03231;P03212); test: flow cytometry on cells; conditions: one partner purified
T2 construct: also called gH/gL and gB fusion machinery

Row | Binder | koff [1] | kon [1] | binding result [2]
1 | AMMO1 (antibody, V domains shown) VH: QVQLVQSGADVKKPGASVKVSCKASGYTFIHFGISWVRQAPGQGLEWMGWIDTNNGNTNYAQSLQGRVTMTTDTSTGTAYMELRSLSTDDTAVYFCARALEMGHRSGFPFDYWGQGVLVTVSP VL: SYELTQPPSVSVAPGQRATITCGGHNIGAKNVHWYQQKPGQAPVLVIQYDSDRPSGIPERFSGSNSGSTATLTISRVEAGDEADYYCQVWDSGRGHPLYVFGGGTKVTVL | 8.5e-05 s⁻¹ | 577000 M⁻¹ s⁻¹ | 
2 | AMMO1, human gH/gL-specific neutralizing antibody (recombinant IgG1) (antibody, V domains shown) VH: QVQLVQSGADVKKPGASVKVSCKASGYTFIHFGISWVRQAPGQGLEWMGWIDTNNGNTNYAQSLQGRVTMTTDTSTGTAYMELRSLSTDDTAVYFCARALEMGHRSGFPFDYWGQGVLVTVSP VL: SYELTQPPSVSVAPGQRATITCGGHNIGAKNVHWYQQKPGQAPVLVIQYDSDRPSGIPERFSGSNSGSTATLTISRVEAGDEADYYCQVWDSGRGHPLYVFGGGTKVTVL |  |  | binds

— paper PMC8595662 (Nature Communications, 2021)
